{"source": "paper PMC8791944", "about": "“GLUT3 inhibitor discovery through in silico ligand screening and in vivo validation in eukaryotic expression systems” (Scientific Reports, 2022)", "key": {"[1]": {"substrate": "OC[C@H]1OC(O)[C@H](O)[C@@H](O)[C@@H]1O", "test": "cells, lysate or membranes", "type": "cell-based, human", "details": "other: wild-type GLUT3 in hxt^0 cells", "text": "Hexose transporter deficient yeast strains (hxt^0) EBY.VW4000 for expression of GLUT5, EBY.S7 (carrying the fgy1 mutation) for expression of GLUT1-3, and SDY.022 (EBY.S7 Δerg4) for expression of GLUT4 cells, and corresponding plasmids[65],[66],[73] were from the labs of Drs.\nThe plasmids containing functional constructs of GLUT1-5 were transformed in the corresponding hxt^0 strains[65],[66],[73] (EBY.VW4000 for GLUT5S72Y, EBY.S7 for GLUT1, GLUT2∆loopS_Q455R, GLUT3 and GLUT3S66Y, and SDY.022 for GLUT4) and grown on 2% (w/v) agar plates of the respective media supplemented with 1% (w/v) maltose. An initial culture of ~ 10 ml was started with a few colonies and grown for 2–3 days if the media was SC-uracil with 1% (w/v) maltose (GLUT1, GLUT3, GLUT4) or 1–2 days if the media was YEP with 1% (w/v) maltose and 100 µg/ml geneticin G418 (GLUT2∆loopS_Q455R and GLUT5S72Y). […] Then, cells were transferred in the same media so that OD600nm ~ 0.5 and grown further for 1–2 days.\nFor transport activity assay, cells in the hexose media were centrifuged (1000×g, 5 min, room temperature), washed once with PBS buffer (10 mM Na2HPO4, 1.8 mM KH2PO4, 2.7 mM KCl, 137 mM NaCl, pH 7.4), and resuspended in PBS buffer at an OD600nm ~ 10; each assay contained 100 µl of this cell solution. […] The radioactivity was determined with a scintillation counter (Tri-carb 2900TR, Perkin Elmer, USA)."}, "[2]": {"substrate": "OC[C@H]1OC(O)[C@H](O)[C@@H](O)[C@@H]1O", "test": "cells, lysate or membranes", "details": "other: GLUT3S66Y in hxt^0 cells"}}}
{"protein": "GLUT3 (Homo sapiens) (protein, expressed in transfected cells; host or cells: Saccharomyces cerevisiae hxt0 strain EBY.S7 (fgy1)) MGTQKVTPALIFAITVATIGSFQFGYNTGVINAPEKIIKEFINKTLTDKGNAPPSEVLLTSLWSLSVAIFSVGGMIGSFSVGLFVNRFGRRNSMLIVNLLAVTGGCFMGLCKVAKSVEMLILGRLVIGLFCGLCTGFVPMYIGEISPTALRGAFGTLNQLGIVVGILVAQIFGLEFILGSEELWPLLLGFTILPAILQSAALPFCPESPRFLLINRKEEENAKQILQRLWGTQDVSQDIQEMKDESARMSQEKQVTVLELFRVSSYRQPIIISIVLQLSQQLSGINAVFYYSTGIFKDAGVQEPIYATIGAGVVNTIFTVVSLFLVERAGRRTLHMIGLGGMAFCSTLMTVSLLLKDNYNGMSFVCIGAILVFVAFFEIGPGPIPWFIVAELFSQGPRPAAMAVAGCSNWTSNFLVGLLFPSAAHYLGAYVFIIFTGFLITFLAFTFFKVPETRGRTFEDITRAFEGQAHGADRSGKDGVMEMNSIEPAKETTTNV", "values": [{"measurement": "Km", "setting": "[1]", "value": "3110 ± 420", "unit": "µM"}]}
{"protein": "GLUT3S66Y (Homo sapiens; S66Y) (protein) MGTQKVTPALIFAITVATIGSFQFGYNTGVINAPEKIIKEFINKTLTDKGNAPPSEVLLTSLWSLYVAIFSVGGMIGSFSVGLFVNRFGRRNSMLIVNLLAVTGGCFMGLCKVAKSVEMLILGRLVIGLFCGLCTGFVPMYIGEISPTALRGAFGTLNQLGIVVGILVAQIFGLEFILGSEELWPLLLGFTILPAILQSAALPFCPESPRFLLINRKEEENAKQILQRLWGTQDVSQDIQEMKDESARMSQEKQVTVLELFRVSSYRQPIIISIVLQLSQQLSGINAVFYYSTGIFKDAGVQEPIYATIGAGVVNTIFTVVSLFLVERAGRRTLHMIGLGGMAFCSTLMTVSLLLKDNYNGMSFVCIGAILVFVAFFEIGPGPIPWFIVAELFSQGPRPAAMAVAGCSNWTSNFLVGLLFPSAAHYLGAYVFIIFTGFLITFLAFTFFKVPETRGRTFEDITRAFEGQAHGADRSGKDGVMEMNSIEPAKETTTNV", "values": [{"measurement": "Km", "setting": "[2]", "value": "1420 ± 170", "unit": "µM"}]}
